For this experiment, the target named is T1, recombinant human CTLA-4-Fc fusion protein (R&D Systems) (human, UniProt P16410 37-162).
T1 construct: range 37-162; also called fusion protein CTLA-4/Fv; recombinant protein CTLA-4; not shown: IgG constant region (Fc) of the bought fusion protein
T1 sequence (looked up): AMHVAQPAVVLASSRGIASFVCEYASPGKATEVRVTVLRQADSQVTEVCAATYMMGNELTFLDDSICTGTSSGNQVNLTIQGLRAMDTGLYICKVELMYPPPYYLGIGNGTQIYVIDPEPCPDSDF
Description: phage display panning on coated CTLA-4/Fc, then ELISA of purified scFv on coated recombinant CTLA-4. In general terms: An ELISA detects its analyte on a solid surface through an enzyme-linked reagent.

B1: human anti-CTLA-4 single-chain variable region (scFv) antibody (scFv)
scFv: QVQLVQSGGGVVQPGRSLRLSCAASGFTFSSYGMHWVRQAPGKGLEWVAVIWYDGSRQYYADSVKGRFTISRDDSKNTMYLQMNSLRAEDTAVYYCARGGFWGAFDIWGQGTMVTVSSGSGGGGSDVVMTQSPGTLSLSPGEGATLSCRASQHVISSYLAWYQQKPGQAPRLLVYGASSRDTGVSDRFTGSGSGTDFTLTISRLEPEDSAVYFCQQYGTSPWTFGQGTKLEIKR
notes: also called anti-CTLA-4 scFv; CTLA-4scFv
For the molecule B1, the binding result is “binds”.

The record behind these values is patent US20190048080A1 (SHANGHAI KANDA BIOTECHNOLOGY, published 2019).
